Results on one substance are retold here after US20090196877A1.

For the assay, the target named is SIINFEKL/H-2 Kb (mouse) (UniProt P01901).

In turn, “OT-1 T cell Receptor (TCR) of OT-1 TCR transgenic T cells” showed an expression of the cell surface markers CD44, CD69 and CD25 on OT-1 cells after stimulation with irradiated CD80/EG7 of 100%.
